Laboratory results: publication PMC7367192

Key:
wt vWF multimer = wt vWF multimer (UniProt P04275); experiment: FCS; details: MST: PBS (162 mM ionic strength), optionally +150 mM NaCl, EMSA: 0.5x TA (20 mM ionic strength), +10 or +40 mM NaCl, FCS after shear at 2000-4000 s-1, pH and …
[1] = biological target: vWF A1 domain R1392A/R1395A/R1399A (UniProt P04275); experiment: MST; details: MST: PBS (162 mM ionic strength), optionally +150 mM NaCl; EMSA: 0.5x TA (20 mM ionic strength), +10 or +40 mM NaCl; FCS after shear at 2000-4000 s-1; pH and …
vWF A1 domain = vWF A1 domain (UniProt P04275); experiment: MST; details: MST: PBS (162 mM ionic strength), optionally +150 mM NaCl; EMSA: 0.5x TA (20 mM ionic strength), +10 or +40 mM NaCl; FCS after shear at 2000-4000 s-1; pH and …
[2] = biological target: eGFP full-length vWF dimer (UniProt P04275); experiment: EMSA; details: fixed dimer 0.47 mg/ml, DNA titrated; MST: PBS (162 mM ionic strength), optionally +150 mM NaCl; EMSA: 0.5x TA (20 mM ionic strength), +10 or +40 mM NaCl; FCS after shear at 2000-4000 s-1; pH and …

| Sequence | binding signal (wt vWF multimer; shear 4000 s-1) [% bound] | binding signal (wt vWF multimer; shear, 2000 s-1?) [% bound] | Kd [1] [µM] | Kd (vWF A1 domain) [µM] | Kd [2] [µM] |
| --- | --- | --- | --- | --- | --- |
| CATAAATCTTTGAATACCAAGTGTTAGAACCATCAACCATATCAACTTCCTTTATACATCTA / CTACATCACTTTCTTCATTATAAAATAAAAGGAAGTTGATATGGTTGATG [23 bp ds DNA] | 23 | 21 | 30 | 13 |  |
| GGCGTGCAGTGCCTTCGGCCGTGCGGTGCCTCCGTCACGCCTAAAATAAAA [ARC1172 ss DNA] |  |  | 130 | 10 | 0.001 |
